Changes are numbered by the printed parent chain.

Holding throughout (assay): EMSA
Background: Mobility shift assays separate free from complexed probe on a gel.

The target in data set [1] is T1, nPfh1 (nuclear isoform, wild-type) (Schizosaccharomyces pombe, UniProt Q9UUA2-2 1-785).
T1 sequence: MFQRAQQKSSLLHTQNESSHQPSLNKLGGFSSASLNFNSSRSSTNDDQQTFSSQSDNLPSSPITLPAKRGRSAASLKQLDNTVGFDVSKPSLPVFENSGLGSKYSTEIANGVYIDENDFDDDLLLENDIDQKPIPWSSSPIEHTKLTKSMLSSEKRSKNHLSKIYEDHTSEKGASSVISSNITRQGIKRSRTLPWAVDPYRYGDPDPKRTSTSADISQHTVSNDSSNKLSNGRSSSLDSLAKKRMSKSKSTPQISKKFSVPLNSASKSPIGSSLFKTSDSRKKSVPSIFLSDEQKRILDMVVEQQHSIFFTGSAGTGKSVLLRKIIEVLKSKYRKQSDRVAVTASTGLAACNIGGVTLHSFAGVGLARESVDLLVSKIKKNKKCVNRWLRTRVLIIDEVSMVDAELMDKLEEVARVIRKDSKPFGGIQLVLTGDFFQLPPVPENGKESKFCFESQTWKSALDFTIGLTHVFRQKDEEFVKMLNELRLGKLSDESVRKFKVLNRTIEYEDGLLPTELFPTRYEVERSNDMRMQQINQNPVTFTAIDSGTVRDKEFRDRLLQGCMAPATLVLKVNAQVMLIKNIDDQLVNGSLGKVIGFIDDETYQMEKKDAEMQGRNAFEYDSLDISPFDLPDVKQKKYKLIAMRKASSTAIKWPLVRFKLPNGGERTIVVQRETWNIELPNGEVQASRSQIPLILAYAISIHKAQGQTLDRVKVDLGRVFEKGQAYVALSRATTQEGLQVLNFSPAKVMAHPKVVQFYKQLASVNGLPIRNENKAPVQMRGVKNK

The target in data set [2] is T2, nPfh1-L430A (Schizosaccharomyces pombe, UniProt Q9UUA2-2 1-785, L410A).
T2 sequence: T1 sequence with L410A

For data set [3], the target named is T3, nPfh1-Δ21 (Schizosaccharomyces pombe, UniProt Q9UUA2-2 1-785, del408-428).
T3 sequence: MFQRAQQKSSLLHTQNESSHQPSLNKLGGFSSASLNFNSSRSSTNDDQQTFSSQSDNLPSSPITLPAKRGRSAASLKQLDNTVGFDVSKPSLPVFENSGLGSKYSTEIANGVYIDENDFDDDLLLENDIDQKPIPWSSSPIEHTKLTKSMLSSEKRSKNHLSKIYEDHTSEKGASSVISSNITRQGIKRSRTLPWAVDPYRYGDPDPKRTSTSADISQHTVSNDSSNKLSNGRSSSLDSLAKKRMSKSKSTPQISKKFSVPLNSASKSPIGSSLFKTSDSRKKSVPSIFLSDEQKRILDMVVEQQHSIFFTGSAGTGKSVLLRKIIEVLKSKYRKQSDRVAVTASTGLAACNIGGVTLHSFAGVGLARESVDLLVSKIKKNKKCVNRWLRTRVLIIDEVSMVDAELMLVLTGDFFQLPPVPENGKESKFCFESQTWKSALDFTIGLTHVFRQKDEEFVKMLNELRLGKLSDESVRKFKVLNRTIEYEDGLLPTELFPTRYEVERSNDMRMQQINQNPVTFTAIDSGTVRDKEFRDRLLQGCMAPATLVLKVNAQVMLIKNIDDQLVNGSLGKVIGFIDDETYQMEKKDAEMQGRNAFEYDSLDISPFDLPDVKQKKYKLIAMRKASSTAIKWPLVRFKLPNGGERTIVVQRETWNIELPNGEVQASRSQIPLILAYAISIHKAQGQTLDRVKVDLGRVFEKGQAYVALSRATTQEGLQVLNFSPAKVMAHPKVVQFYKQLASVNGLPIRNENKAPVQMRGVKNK

Data set [4] concerns the target T4, nPfh1-L430P (Schizosaccharomyces pombe, UniProt Q9UUA2-2 1-785, L410P).
T4 sequence: T1 sequence with L410P

B1: Duplex DNA/DNA (dsDNA)
DNA 1: TTAAGCACGTCCGTACCATCGA
DNA 2: TCGATGGTACGGACGTGCTTAA
For the molecule B1, the binding result in data set [1] was “no binding”.

B2: 3'-5' DNA/DNA partial duplex (dsDNA)
DNA 1: TCGATGGTACGGACGTGCTTAAAGAAAAAAAAAA
DNA 2: TCGATGGTACGGACGTGCTTAA
Consider B2, for which the binding result in data set [1] is “no binding”.

B3: Y-fork (dsDNA)
DNA 1: AAAAAAAAAAGATTAAGCACGTCCGTACCATCGA
DNA 2: B2 DNA 1
In the case of B3, the binding signal in data set [2], in data set [3] and in data set [4] was < 5 % bound throughout.
